Test results as given in paper PMC4188263.

Key:
[1] = biological target: methanol dehydrogenase α subunit from Methylococcus capsulatus (Bath) (Methylococcus capsulatus (Bath)); experiment: SEC
[2] = biological target: methanol dehydrogenase α subunit from Methylococcus capsulatus (Bath) (Methylococcus capsulatus (Bath)); experiment: SEC-MALS
[3] = biological target: methanol dehydrogenase from Methylococcus capsulatus (Bath), α2β2 dimer (Methylococcus capsulatus (Bath)); experiment: BLI

stoichiometry N [1] | stoichiometry N [2] | Kd [3] | Substance
2 | 2 |  | methanol dehydrogenase α subunit from Methylococcus capsulatus (Bath) (natural protein)
 |  | 9 µM | spmoB, truncated recombinant periplasmic domains of M. capsulatus (Bath) pMMO subunit pmoB (domain or fragment)
